Test results reported in publication PMC3695765.

Molecular target: FLAG-ZO-2 (UniProt Q9UDY2)
Test: GST pull-down from cell lysate
Details: reference: GST-OccC not prephosphorylated; sites T400,T404,S408

## occludin C-terminal cytoplasmic tail, 263-523 (from UniProt Q16625) GST-OccC prephosphorylated by CK2
  binding against the reference: weaker
